Data taken from patent US20260167699A1 (Chugai, published 2026).

T1: FcγRIIa(R) extracellular domain, C-terminal His tag (human, UniProt P12318 34-217)
T1 construct: extracellular domain; Allotype R131; also called 2aR
T1 sequence: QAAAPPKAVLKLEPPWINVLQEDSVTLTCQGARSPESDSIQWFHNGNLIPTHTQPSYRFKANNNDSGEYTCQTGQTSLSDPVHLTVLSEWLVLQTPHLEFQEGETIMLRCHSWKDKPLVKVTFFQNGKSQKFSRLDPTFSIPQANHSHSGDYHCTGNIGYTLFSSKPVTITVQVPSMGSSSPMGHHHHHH

T2: FcγRIIa(H) extracellular domain, C-terminal His tag (human, UniProt P12318 34-217)
T2 construct: extracellular domain; Allotype H131; also called 2aH
T2 sequence: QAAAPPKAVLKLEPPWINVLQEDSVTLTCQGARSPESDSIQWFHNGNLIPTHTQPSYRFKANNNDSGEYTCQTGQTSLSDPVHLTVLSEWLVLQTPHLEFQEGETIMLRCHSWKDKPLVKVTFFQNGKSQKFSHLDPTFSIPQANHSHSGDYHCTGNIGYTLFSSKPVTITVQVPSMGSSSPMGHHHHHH

T3: FcγRIIb extracellular domain, C-terminal His tag (human, UniProt P31994 43-217)
T3 construct: extracellular domain; also called 2b
T3 sequence: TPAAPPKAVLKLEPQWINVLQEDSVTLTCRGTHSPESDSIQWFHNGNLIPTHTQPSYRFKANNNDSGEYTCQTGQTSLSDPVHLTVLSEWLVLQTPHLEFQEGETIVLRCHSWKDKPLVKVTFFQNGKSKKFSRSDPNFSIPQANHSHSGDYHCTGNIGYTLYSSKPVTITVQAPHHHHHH


Assays:
Test in all cases: SPR (Biacore); binding relative to GpH7-A5/GpH7-B3/GpL16-k0 x100;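 note: antibodies captured on a chip surface, soluble FcγR flowed over in HBS-EP+ running buffer at 25 °C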
[1] = target: T4, FcγRIa extracellular domain, C-terminal His tag (human, UniProt P12314 16-292)
T4 construct: extracellular domain; also called 1a

[2] = target: T1, FcγRIIa(R) extracellular domain, …
[3] = target: T2, FcγRIIa(H) extracellular domain, …
[4] = target: T3, FcγRIIb extracellular domain, …
[5] = target: T5, FcγRIIIa extracellular domain, C-terminal His tag (human, UniProt P08637 17-208)
T5 construct: extracellular domain; also called 3a
T5 sequence (P08637 other isoform, or with tags, fused parts or gaps): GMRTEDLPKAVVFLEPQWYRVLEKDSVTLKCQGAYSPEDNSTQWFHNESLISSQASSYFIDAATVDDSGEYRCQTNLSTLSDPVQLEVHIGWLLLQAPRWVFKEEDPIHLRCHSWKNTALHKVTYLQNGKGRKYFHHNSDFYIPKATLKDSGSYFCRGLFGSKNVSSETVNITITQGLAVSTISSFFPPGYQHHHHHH

T4 sequence (P12314 other isoform, or with tags, fused parts or gaps): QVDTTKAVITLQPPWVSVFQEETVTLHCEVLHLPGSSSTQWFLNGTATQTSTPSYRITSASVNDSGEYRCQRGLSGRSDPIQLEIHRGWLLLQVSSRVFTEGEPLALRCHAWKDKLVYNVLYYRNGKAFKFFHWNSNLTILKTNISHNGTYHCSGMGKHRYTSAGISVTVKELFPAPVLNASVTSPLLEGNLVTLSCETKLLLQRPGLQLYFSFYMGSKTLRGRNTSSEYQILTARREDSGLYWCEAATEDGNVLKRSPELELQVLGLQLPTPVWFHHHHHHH

| He/Con 1a [1] | He/Con 2aR [2] | He/Con 2aH [3] | He/Con 2b [4] | He/Con 3a [5] | Binder |
| --- | --- | --- | --- | --- | --- |
| 106% | 80% | 89.3% | 74.1% | 54% | GpH7-A5/GpH7-B3 variant A327_06M/GpL16-k0 (antibody, human IgG1, kappa, He Ab: anti-glypican 3 IgG1 heterodimer, only the GpH7-B3 chain mutated; position in EU numbering; also called He Ab) heavy 1: not shown heavy 2: not shown light: DIVMTQSPLSLPVTPGEPASISCQASESLVHSNRNTYLHWYLQKPGQSPQLLIYKVSNRFSGVPDRFSGSGSGTDFTLKISRVEAEDVGVYYCSQNTHVPPTFGQGTKVEIERTVAAPSVFIFPPSDEQLKSGTASVVCLLNNFYPREAKVQWKVDNALQSGNSQESVTEQDSKDSTYSLSSTLTLSKADYEKHKVYACEVTHQGLSSPVTKSFNRGEC |
| 111% | 97.2% | 87.7% | 79.2% | 82.8% | GpH7-A5/GpH7-B3 variant A330_10E/GpL16-k0 (antibody, human IgG1, kappa, He Ab: anti-glypican 3 IgG1 heterodimer, only the GpH7-B3 chain mutated; position in EU numbering; also called He Ab) heavy 1: not shown heavy 2: not shown light: DIVMTQSPLSLPVTPGEPASISCQASESLVHSNRNTYLHWYLQKPGQSPQLLIYKVSNRFSGVPDRFSGSGSGTDFTLKISRVEAEDVGVYYCSQNTHVPPTFGQGTKVEIERTVAAPSVFIFPPSDEQLKSGTASVVCLLNNFYPREAKVQWKVDNALQSGNSQESVTEQDSKDSTYSLSSTLTLSKADYEKHKVYACEVTHQGLSSPVTKSFNRGEC |
| 100% | 114% | 79% | 141% | 62.8% | GpH7-A5/GpH7-B3 variant A327_18N/GpL16-k0 (antibody, human IgG1, kappa, He Ab: anti-glypican 3 IgG1 heterodimer, only the GpH7-B3 chain mutated; position in EU numbering; also called He Ab) heavy 1: not shown heavy 2: not shown light: DIVMTQSPLSLPVTPGEPASISCQASESLVHSNRNTYLHWYLQKPGQSPQLLIYKVSNRFSGVPDRFSGSGSGTDFTLKISRVEAEDVGVYYCSQNTHVPPTFGQGTKVEIERTVAAPSVFIFPPSDEQLKSGTASVVCLLNNFYPREAKVQWKVDNALQSGNSQESVTEQDSKDSTYSLSSTLTLSKADYEKHKVYACEVTHQGLSSPVTKSFNRGEC |
| 109% | 96% | 94.4% | 75.8% | 101% | GpH7-A5/GpH7-B3 variant A330_07I/GpL16-k0 (antibody, human IgG1, kappa, He Ab: anti-glypican 3 IgG1 heterodimer, only the GpH7-B3 chain mutated; position in EU numbering; also called He Ab) heavy 1: not shown heavy 2: not shown light: DIVMTQSPLSLPVTPGEPASISCQASESLVHSNRNTYLHWYLQKPGQSPQLLIYKVSNRFSGVPDRFSGSGSGTDFTLKISRVEAEDVGVYYCSQNTHVPPTFGQGTKVEIERTVAAPSVFIFPPSDEQLKSGTASVVCLLNNFYPREAKVQWKVDNALQSGNSQESVTEQDSKDSTYSLSSTLTLSKADYEKHKVYACEVTHQGLSSPVTKSFNRGEC |
| 112% | 79.5% | 67.8% | 62.8% | 56.4% | GpH7-A5/GpH7-B3 variant A330_09D/GpL16-k0 (antibody, human IgG1, kappa, He Ab: anti-glypican 3 IgG1 heterodimer, only the GpH7-B3 chain mutated; position in EU numbering; also called He Ab) heavy 1: not shown heavy 2: not shown light: DIVMTQSPLSLPVTPGEPASISCQASESLVHSNRNTYLHWYLQKPGQSPQLLIYKVSNRFSGVPDRFSGSGSGTDFTLKISRVEAEDVGVYYCSQNTHVPPTFGQGTKVEIERTVAAPSVFIFPPSDEQLKSGTASVVCLLNNFYPREAKVQWKVDNALQSGNSQESVTEQDSKDSTYSLSSTLTLSKADYEKHKVYACEVTHQGLSSPVTKSFNRGEC |
| 110% | 112% | 104% | 105% | 144% | GpH7-A5/GpH7-B3 variant A330_04F/GpL16-k0 (antibody, human IgG1, kappa, He Ab: anti-glypican 3 IgG1 heterodimer, only the GpH7-B3 chain mutated; position in EU numbering; also called He Ab) heavy 1: not shown heavy 2: not shown light: DIVMTQSPLSLPVTPGEPASISCQASESLVHSNRNTYLHWYLQKPGQSPQLLIYKVSNRFSGVPDRFSGSGSGTDFTLKISRVEAEDVGVYYCSQNTHVPPTFGQGTKVEIERTVAAPSVFIFPPSDEQLKSGTASVVCLLNNFYPREAKVQWKVDNALQSGNSQESVTEQDSKDSTYSLSSTLTLSKADYEKHKVYACEVTHQGLSSPVTKSFNRGEC |
| 110% | 99.7% | 94.7% | 79.6% | 122% | GpH7-A5/GpH7-B3 variant A330_08L/GpL16-k0 (antibody, human IgG1, kappa, He Ab: anti-glypican 3 IgG1 heterodimer, only the GpH7-B3 chain mutated; position in EU numbering; also called He Ab) heavy 1: not shown heavy 2: not shown light: DIVMTQSPLSLPVTPGEPASISCQASESLVHSNRNTYLHWYLQKPGQSPQLLIYKVSNRFSGVPDRFSGSGSGTDFTLKISRVEAEDVGVYYCSQNTHVPPTFGQGTKVEIERTVAAPSVFIFPPSDEQLKSGTASVVCLLNNFYPREAKVQWKVDNALQSGNSQESVTEQDSKDSTYSLSSTLTLSKADYEKHKVYACEVTHQGLSSPVTKSFNRGEC |
| 98.5% | 77.7% | 79.6% | 67.5% | 54% | GpH7-A5/GpH7-B3 variant A327_19Q/GpL16-k0 (antibody, human IgG1, kappa, He Ab: anti-glypican 3 IgG1 heterodimer, only the GpH7-B3 chain mutated; position in EU numbering; also called He Ab) heavy 1: not shown heavy 2: not shown light: DIVMTQSPLSLPVTPGEPASISCQASESLVHSNRNTYLHWYLQKPGQSPQLLIYKVSNRFSGVPDRFSGSGSGTDFTLKISRVEAEDVGVYYCSQNTHVPPTFGQGTKVEIERTVAAPSVFIFPPSDEQLKSGTASVVCLLNNFYPREAKVQWKVDNALQSGNSQESVTEQDSKDSTYSLSSTLTLSKADYEKHKVYACEVTHQGLSSPVTKSFNRGEC |
| 100% | 95.9% | 76.6% | 98.2% | 52.6% | GpH7-A5/GpH7-B3 variant A327_20W/GpL16-k0 (antibody, human IgG1, kappa, He Ab: anti-glypican 3 IgG1 heterodimer, only the GpH7-B3 chain mutated; position in EU numbering; also called He Ab) heavy 1: not shown heavy 2: not shown light: DIVMTQSPLSLPVTPGEPASISCQASESLVHSNRNTYLHWYLQKPGQSPQLLIYKVSNRFSGVPDRFSGSGSGTDFTLKISRVEAEDVGVYYCSQNTHVPPTFGQGTKVEIERTVAAPSVFIFPPSDEQLKSGTASVVCLLNNFYPREAKVQWKVDNALQSGNSQESVTEQDSKDSTYSLSSTLTLSKADYEKHKVYACEVTHQGLSSPVTKSFNRGEC |
| 106% | 142% | 108% | 175% | 70.5% | GpH7-A5/GpH7-B3 variant A327_10E/GpL16-k0 (antibody, human IgG1, kappa, He Ab: anti-glypican 3 IgG1 heterodimer, only the GpH7-B3 chain mutated; position in EU numbering; also called He Ab) heavy 1: not shown heavy 2: not shown light: DIVMTQSPLSLPVTPGEPASISCQASESLVHSNRNTYLHWYLQKPGQSPQLLIYKVSNRFSGVPDRFSGSGSGTDFTLKISRVEAEDVGVYYCSQNTHVPPTFGQGTKVEIERTVAAPSVFIFPPSDEQLKSGTASVVCLLNNFYPREAKVQWKVDNALQSGNSQESVTEQDSKDSTYSLSSTLTLSKADYEKHKVYACEVTHQGLSSPVTKSFNRGEC |
| 109% | 84% | 86.1% | 59.2% | 98.8% | GpH7-A5/GpH7-B3 variant A330_03V/GpL16-k0 (antibody, human IgG1, kappa, He Ab: anti-glypican 3 IgG1 heterodimer, only the GpH7-B3 chain mutated; position in EU numbering; also called He Ab) heavy 1: not shown heavy 2: not shown light: DIVMTQSPLSLPVTPGEPASISCQASESLVHSNRNTYLHWYLQKPGQSPQLLIYKVSNRFSGVPDRFSGSGSGTDFTLKISRVEAEDVGVYYCSQNTHVPPTFGQGTKVEIERTVAAPSVFIFPPSDEQLKSGTASVVCLLNNFYPREAKVQWKVDNALQSGNSQESVTEQDSKDSTYSLSSTLTLSKADYEKHKVYACEVTHQGLSSPVTKSFNRGEC |
| 108% | 107% | 101% | 90.9% | 139% | GpH7-A5/GpH7-B3 variant A330_06M/GpL16-k0 (antibody, human IgG1, kappa, He Ab: anti-glypican 3 IgG1 heterodimer, only the GpH7-B3 chain mutated; position in EU numbering; also called He Ab) heavy 1: not shown heavy 2: not shown light: DIVMTQSPLSLPVTPGEPASISCQASESLVHSNRNTYLHWYLQKPGQSPQLLIYKVSNRFSGVPDRFSGSGSGTDFTLKISRVEAEDVGVYYCSQNTHVPPTFGQGTKVEIERTVAAPSVFIFPPSDEQLKSGTASVVCLLNNFYPREAKVQWKVDNALQSGNSQESVTEQDSKDSTYSLSSTLTLSKADYEKHKVYACEVTHQGLSSPVTKSFNRGEC |
| 105% | 159% | 124% | 214% | 86% | GpH7-A5/GpH7-B3 variant A327_09D/GpL16-k0 (antibody, human IgG1, kappa, He Ab: anti-glypican 3 IgG1 heterodimer, only the GpH7-B3 chain mutated; position in EU numbering; also called He Ab) heavy 1: not shown heavy 2: not shown light: DIVMTQSPLSLPVTPGEPASISCQASESLVHSNRNTYLHWYLQKPGQSPQLLIYKVSNRFSGVPDRFSGSGSGTDFTLKISRVEAEDVGVYYCSQNTHVPPTFGQGTKVEIERTVAAPSVFIFPPSDEQLKSGTASVVCLLNNFYPREAKVQWKVDNALQSGNSQESVTEQDSKDSTYSLSSTLTLSKADYEKHKVYACEVTHQGLSSPVTKSFNRGEC |
| 109% | 122% | 107% | 117% | 87.3% | GpH7-A5/GpH7-B3 variant A330_01G/GpL16-k0 (antibody, human IgG1, kappa, He Ab: anti-glypican 3 IgG1 heterodimer, only the GpH7-B3 chain mutated; position in EU numbering; also called He Ab) heavy 1: not shown heavy 2: not shown light: DIVMTQSPLSLPVTPGEPASISCQASESLVHSNRNTYLHWYLQKPGQSPQLLIYKVSNRFSGVPDRFSGSGSGTDFTLKISRVEAEDVGVYYCSQNTHVPPTFGQGTKVEIERTVAAPSVFIFPPSDEQLKSGTASVVCLLNNFYPREAKVQWKVDNALQSGNSQESVTEQDSKDSTYSLSSTLTLSKADYEKHKVYACEVTHQGLSSPVTKSFNRGEC |
| 105% | 98.6% | 84.4% | 99% | 66.7% | GpH7-A5/GpH7-B3 variant A327_13S/GpL16-k0 (antibody, human IgG1, kappa, He Ab: anti-glypican 3 IgG1 heterodimer, only the GpH7-B3 chain mutated; position in EU numbering; also called He Ab) heavy 1: not shown heavy 2: not shown light: DIVMTQSPLSLPVTPGEPASISCQASESLVHSNRNTYLHWYLQKPGQSPQLLIYKVSNRFSGVPDRFSGSGSGTDFTLKISRVEAEDVGVYYCSQNTHVPPTFGQGTKVEIERTVAAPSVFIFPPSDEQLKSGTASVVCLLNNFYPREAKVQWKVDNALQSGNSQESVTEQDSKDSTYSLSSTLTLSKADYEKHKVYACEVTHQGLSSPVTKSFNRGEC |
